One block for each molecule: values may come before it.
What was measured:
[1] = biological target: porcine brain tubulin (microtubules) (porcine); assay: in vitro reconstitution with TIRF microscopy; microtubules nucleated from and anchored at γ-TuC (GCP3–GFP) held by anti-GFP nanobody; 25 µM tubulin, 80 mM KCl, MRB80, 30 °C; 5 nM SNAP–AF647–CAMSAP3, 5 nM SNAP–AF647–CAMSAP1 or 40 nM mCherry–CAMSAP2; scored over 10 min
[2] = biological target: porcine brain tubulin (microtubules) (porcine)
[3] = biological target: γ-tubulin-containing complexes (complete and incomplete γ-TuRC) purified using GCP3–GFP–SII (human (endogenous in HEK293T)) (UniProt Q96CW5); assay: single-molecule colocalisation by TIRF microscopy; NPF pre-incubated with γ-TuC–GFP or GFP control ('Premix'), then held on the coverslip by biotinylated anti-GFP nanobody; without tubulin
Chain of UniProt Q96CW5 (Q96CW5 whole entry, looked up, one chain of several): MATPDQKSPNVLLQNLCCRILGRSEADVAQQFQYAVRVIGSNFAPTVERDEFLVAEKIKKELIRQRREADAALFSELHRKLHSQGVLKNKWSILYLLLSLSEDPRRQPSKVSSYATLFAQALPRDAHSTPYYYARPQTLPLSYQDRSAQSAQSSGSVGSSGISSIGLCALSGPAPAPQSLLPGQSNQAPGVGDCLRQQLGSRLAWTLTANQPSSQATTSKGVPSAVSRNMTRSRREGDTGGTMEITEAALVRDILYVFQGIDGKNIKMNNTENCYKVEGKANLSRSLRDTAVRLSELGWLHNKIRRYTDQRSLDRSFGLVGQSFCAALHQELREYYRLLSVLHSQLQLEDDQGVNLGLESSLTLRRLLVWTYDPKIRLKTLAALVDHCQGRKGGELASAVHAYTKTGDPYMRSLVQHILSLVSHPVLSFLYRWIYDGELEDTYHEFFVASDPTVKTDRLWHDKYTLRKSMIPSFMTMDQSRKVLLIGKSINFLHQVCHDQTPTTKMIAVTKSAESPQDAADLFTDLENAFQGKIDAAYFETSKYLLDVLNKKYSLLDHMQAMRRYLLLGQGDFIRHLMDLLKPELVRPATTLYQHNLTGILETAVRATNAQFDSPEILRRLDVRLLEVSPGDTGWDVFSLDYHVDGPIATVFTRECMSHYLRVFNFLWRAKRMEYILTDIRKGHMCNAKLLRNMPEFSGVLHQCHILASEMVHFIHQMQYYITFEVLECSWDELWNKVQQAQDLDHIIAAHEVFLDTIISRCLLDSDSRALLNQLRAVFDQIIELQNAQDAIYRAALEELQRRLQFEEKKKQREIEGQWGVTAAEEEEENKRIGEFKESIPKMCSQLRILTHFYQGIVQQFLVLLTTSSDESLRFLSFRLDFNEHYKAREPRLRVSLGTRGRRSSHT

[4] = biological target: γ-tubulin-containing complexes (complete and incomplete γ-TuRC) purified using GCP3–GFP–SII (human (endogenous in HEK293T)) (UniProt Q96CW5); assay: single-molecule colocalisation by TIRF microscopy; γ-TuC–GFP held on the coverslip by biotinylated anti-GFP nanobody; with free tubulin (17.5 µM, 50 mM KCl, 30 °C); the sentence does not tell whether the NPF was premixed
[5] = biological target: γ-tubulin-containing complexes (complete and incomplete γ-TuRC) purified using GCP3–GFP–SII (human (endogenous in HEK293T)) (UniProt Q96CW5)
[6] = biological target: γ-tubulin-containing complexes (complete and incomplete γ-TuRC) purified using GCP3–GFP–SII (human (endogenous in HEK293T)) (UniProt Q96CW5); assay: single-molecule colocalisation by TIRF microscopy; NPF pre-incubated with γ-TuC–GFP in solution ('Premix'), then held on the coverslip by biotinylated anti-GFP nanobody; with 17.5 µM tubulin, 50 mM KCl, MRB80, 30 °C
[7] = biological target: porcine brain tubulin (microtubules) (porcine); assay: in vitro reconstitution with TIRF microscopy; as a7 with 5 nM SNAP–AF647–CAMSAP3 and 200 nM chTOG–mCherry (not premixed)
[8] = biological target: porcine brain tubulin (microtubules) (porcine); assay: in vitro reconstitution with TIRF microscopy; as a7 with 5 nM SNAP–AF647–CAMSAP3 and 30 nM mCherry–CLASP2 (pre-incubated with γ-TuC)
[9] = biological target: porcine brain tubulin (microtubules) (porcine); remark: listed apart in the source
[10] = biological target: porcine brain tubulin (microtubules) (porcine); assay: in vitro reconstitution with TIRF microscopy; microtubules nucleated from and anchored at γ-TuC (GCP3–GFP) held by anti-GFP nanobody; 25 µM tubulin, 80 mM KCl, MRB80, 30 °C; 5 nM SNAP–AF647–CAMSAP3, 5 nM SNAP–AF647–CAMSAP1 or 40 nM mCherry–CAMSAP2; scored over 10 min; remark: listed apart in the source
[11] = biological target: porcine brain tubulin (microtubules) (porcine); assay: in vitro reconstitution with TIRF microscopy; as a7 with 5 nM SNAP–AF647–CAMSAP3 and 30 nM mCherry–CDK5RAP2 (pre-incubated with γ-TuC)
[12] = biological target: γ-tubulin-containing complexes (complete and incomplete γ-TuRC) purified using GCP3–GFP–SII (human (endogenous in HEK293T)) (UniProt Q96CW5); assay: single-molecule colocalisation by TIRF microscopy; NPF pre-incubated with γ-TuC–GFP or GFP control ('Premix'), then held on the coverslip by biotinylated anti-GFP nanobody; without tubulin; remark: listed apart in the source
[13] = biological target: γ-tubulin-containing complexes (complete and incomplete γ-TuRC) purified using GCP3–GFP–SII (human (endogenous in HEK293T)) (UniProt Q96CW5); assay: single-molecule colocalisation by TIRF microscopy; γ-TuC–GFP held on the coverslip by biotinylated anti-GFP nanobody; with free tubulin (17.5 µM, 50 mM KCl, 30 °C); the sentence does not tell whether the NPF was premixed; remark: listed apart in the source

Molecule: chTOG–mCherry (from UniProt Q14008 1-2032) (natural protein)
percent of chTOG-positive puncta colocalizing with γ-TuC [3]: 28% | percent of chTOG-positive puncta colocalizing with γ-TuC [4]: 6%

Molecule: mCherry–CDK5RAP2 (from UniProt Q96SN8 1-1893) (natural protein)
percent of CDK5RAP2-positive puncta colocalizing with γ-TuCs [3]: 41% | percent of γ-TuCs colocalizing with CDK5RAP2 [3]: 30% | percent of CDK5RAP2-positive puncta colocalizing with γ-TuCs [4]: 13% | microtubule nucleation efficiency of γ-TuC (percent of γ-TuCs nucleating within 10 min), mCherry–CDK5RAP2 pre-incubated with γ-TuCs [5]: 35% | percent of γ-TuCs colocalizing with CDK5RAP2 [6]: 38%

B2: mCherry–CLASP2 (natural protein)
chain: MAMGDDKSFDDEESVDGNRPSSAASAFKVPAPKTSGNPANSARKPGSAGGPKVGGASKEGGAGAVDEDDFIKAFTDVPSIQIYSSRELEETLNKIREILSDDKHDWDQRANALKKIRSLLVAGAAQYDCFFQHLRLLDGALKLSAKDLRSQVVREACITVAHLSTVLGNKFDHGAEAIVPTLFNLVPNSAKVMATSGCAAIRFIIRHTHVPRLIPLITSNCTSKSVPVRRRSFEFLDLLLQEWQTHSLERHAAVLVETIKKGIHDADAEARVEARKTYMGLRNHFPGEAETLYNSLEPSYQKSLQTYLKSSGSVASLPQSDRSSSSSQESLNRPFSSKWSTANPSTVAGRVSAGSSKASSLPGSLQRSRSDIDVNAAAGAKAHHAAGQSVRSGRLGAGALNAGSYASLEDTSDKLDGTASEDGRVRAKLSAPLAGMGNAKADSRGRSRTKMVSQSQPGSRSGSPGRVLTTTALSTVSSGVQRVLVNSASAQKRSKIPRSQGCSREASPSRLSVARSSRIPRPSVSQGCSREASRESSRDTSPVRSFQPLASRHHSRSTGALYAPEVYGASGPGYGISQSSRLSSSVSAMRVLNTGSDVEEAVADALKKPARRRYESYGMHSDDDANSDASSACSERSYSSRNGSIPTYMRQTEDVAEVLNRCASSNWSERKEGLLGLQNLLKNQRTLSRVELKRLCEIFTRMFADPHGKRVFSMFLETLVDFIQVHKDDLQDWLFVLLTQLLKKMGADLLGSVQAKVQKALDVTRESFPNDLQFNILMRFTVDQTQTPSLKVKVAILKYIETLAKQMDPGDFINSSETRLAVSRVITWTTEPKSSDVRKAAQSVLISLFELNTPEFTMLLGALPKTFQDGATKLLHNHLRNTGNGTQSSMGSPLTRPTPRSPANWSSPLTSPTNTSQNTLSPSAFDYDTENMNSEDIYSSLRGVTEAIQNFSFRSQEDMNEPLKRDSKKDDGDSMCGGPGMSDPRAGGDATDSSQTALDNKASLLHSMPTHSSPRSRDYNPYNYSDSISPFNKSALKEAMFDDDADQFPDDLSLDHSDLVAELLKELSNHNERVEERKIALYELMKLTQEESFSVWDEHFKTILLLLLETLGDKEPTIRALALKVLREILRHQPARFKNYAELTVMKTLEAHKDPHKEVVRSAEEAASVLATSISPEQCIKVLCPIIQTADYPINLAAIKMQTKVIERVSKETLNLLLPEIMPGLIQGYDNSESSVRKACVFCLVAVHAVIGDELKPHLSQLTGSKMKLLNLYIKRAQTGSGGADPTTDVSGQS
percent colocalization with γ-TuC [12]: 72% | percent colocalization with γ-TuC [13]: 72%

B3: mCherry–CAMSAP2 (natural protein)
chain: MGDAADPREMRKTFIVPAIKPFDHYDFSRAKIACNLAWLVAKAFGTENVPEELQEPFYTDQYDQEHIKPPVVNLLLSAELYCRAGSLILKSDAAKPLLGHDAVIQALAQKGLYVTDQEKLVTERDLHKKPIQMSAHLAMIDTLMMAYTVEMVSIEKVIACAQQYSAFFQATDLPYDIEDAVMYWINKVNEHLKDIMEQEQKLKEHHTVEAPGGQKSPSKWFWKLVPARYRKEQTLLKQLPCIPLVENLLKDGTDGCALAALIHFYCPDVVRLEDICLKETMSLADSLYNLQLIQEFCQEYLNQCCHFTLEDMLYAASSIKSNYLVFMAELFWWFEVVKPSFVQPRVVRPQGAEPVKDMPSIPVLNAAKRNVLDSSSDFPSSGEGATFTQSHHHLPSRYSRPQAHSSASGGIRRSSSMSYVDGFIGTWPKEKRSSVHGVSFDISFDKEDSVQRSTPNRGITRSISNEGLTLNNSHVSKHIRKNLSFKPINGEEEAESIEEELNIDSHSDLKSCVPLNTNELNSNENIHYKLPNGALQNRILLDEFGNQIETPSIEEALQIIHDTEKSPHTPQPDQIANGFFLHSQEMSILNSNIKLNQSSPDNVTDTKGALSPITDNTEVDTGIHVPSEDIPETMDEDSSLRDYTVSLDSDMDDASKFLQDYDIRTGNTREALSPCPSTVSTKSQPGSSASSSSGVKMTSFAEQKFRKLNHTDGKSSGSSSQKTTPEGSELNIPHVVAWAQIPEETGLPQGRDTTQLLASEMVHLRMKLEEKRRAIEAQKKKMEAAFTKQRQKMGRTAFLTVVKKKGDGISPLREEAAGAEDEKVYTDRAKEKESQKTDGQRSKSLADIKESMENPQAKWLKSPTTPIDPEKQWNLASPSEETLNEGEILEYTKSIEKLNSSLHFLQQEMQRLSLQQEMLMQMREQQSWVISPPQPSPQKQIRDFKPSKQAGLSSAIAPFSSDSPRPTHPSPQSSNRKSASFSVKSQRTPRPNELKITPLNRTLTPPRSVDSLPRLRRFSPSQVPIQTRSFVCFGDDGEPQLKESKPKEEVKKEELESKGTLEQRGHNPEEKEIKPFESTVSEVLSLPVTETVCLTPNEDQLNQPTEPPPKPVFPPTAPKNVNLIEVSLSDLKPPEKADVPVEKYDGESDKEQFDDDQKVCCGFFFKDDQKAENDMAMKRAALLEKRLRREKETQLRKQQLEAEMEHKKEETRRKTEEERQKKEDERARREFIRQEYMRRKQLKLMEDMDTVIKPRPQVVKQKKQRPKSIHRDHIESPKTPIKGPPVSSLSLASLNTGDNESVHSGKRTPRSESVEGFLSPSRCGSRNGEKDWENASTTSSVASGTEYTGPKLYKEPSAKSNKHIIQNALAHCCLAGKVNEGQKKKILEEMEKSDANNFLILFRDSGCQFRSLYTYCPETEEINKLTGIGPKSITKKMIEGLYKYNSDRKQFSHIPAKTLSASVDAITIHSHLWQTKRPVTPKKLLPTKA
γ-TuC displacement frequency (microtubules released among γ-TuC-anchored minus ends colocalizing with the CAMSAP) [2]: 90% | percent of γ-TuC-nucleated microtubules with CAMSAP at the minus end [10]: 15%

Now from value to molecule:

percent of γ-TuC-nucleated microtubules with CAMSAP at the minus end [1]: 25% | γ-TuC displacement frequency (microtubules released among γ-TuC-anchored minus ends colocalizing with the CAMSAP) [2]: 5%
Molecule: SNAP–AF647–CAMSAP1 (from UniProt Q5T5Y3 1-1602) (natural protein)

γ-TuC displacement frequency (microtubules released among γ-TuC-anchored minus ends colocalizing with the CAMSAP) [2]: 40% | percent of γ-TuC-nucleated microtubules with CAMSAP at the minus end [7]: 25% | percent of γ-TuC-nucleated microtubules with CAMSAP at the minus end [8]: 35% | percentage of microtubules released from γ-TuCs with SNAP–AF647–CAMSAP3 [9]: 15% | percent of γ-TuC-nucleated microtubules with CAMSAP at the minus end [10]: 30% | percent of γ-TuC-nucleated microtubules with CAMSAP at the minus end [11]: 3%
B1: SNAP–AF647–CAMSAP3 (natural protein)
chain: MVEAAPAGSGPLRRTFLVPEIKSLDQYDFSRAKAAASLAWVLRAAFGGAEHVPPELWEPFYTDQYAQEHVKPPVTRLLLSAELYCRAWRQALPQLEPSPSPSALLALLARRGTVPSLPEHPVREADLKHQPILMGAHLAVIDALMVAFSFEWTKTLPGPLALSSLEHKLLFWVDTTVRRLQEKTEQEAAQRASPAAPLDGASPAQPSIRYRKDRAIARRAPCFPNVTTLQDLASGAALAATIHCYCPQLLRLEEVCLKDPMSVADSLYNLQLVQDFCASHLPRGCPLSLEDLLYVPPPLKVNLVVLLAEMYMCFEVLKPDFVQAKDLPDGHAVSPRNTETVPSQNNSGSSSPVFNFRHPLLSPGGPQSPLRGSTGSLKSSPSMSHMEALGKAWNRQLSRPLSQAVSFSTPFGLDSDVDVVMGDPVLLRSVSSDSLGPPRPVSTSSRNSAQPAPESGDLPTIEEALQIIHSAEPRLLPDGAADGSFYLHSPEGLSKPPLSPYPPEGASKPLSDRLNKAPIYISHPENPSKSSPCSTGEILKPPPPSEGSPKAVASSPAANNSEVKMTSFAERKKQLVKAEAESGLGSPTSTPVAPEALSSEMSELGARLEEKRRAIEAQKRRIEAIFAKHRQRLGKSAFLQVQPREAAGEAEEEAELGSVPGGERPAGEGQGEPSLRHKSVTFSPDLGPVPPEGLGDYNRAVSKLSAALSSLQRDMQRLTDQQQRLLAPPEAPGPAPPPAAWVIPGPATGPKAASPSPARRAPAARRSPGPGPSPTPRSPKHARPAELKLAPLTRVLTPPHDVDSLPHLRKFSPSQVPVQTRSSILLSEGTPPEEPTTKPALIEIPLASLGEPAADEEGDGSPPGAEDSLEEEASSEGEPRSGLGFFYKDEDKPEDEMAQKRASLLERQQRRVEEARRRKQWQEAEKEQKREEAARLAQEAPGLAFTTPVVASAAPVATLAPTTRAMAPAEEEVGPRRGDFTRLEYERRAQLKLMDDLDKVLRPRASGTGGPGRGGRRATRPRSGCCDDSALARSPARGLLGSRLSKVYSQSTLSLSTVANEAPNNLGVKRPTSRAPSPSGLMSPSRLPGSRERDWENGSNASSPASVPEYTGPRLYKEPSAKSNKFIIHNALSHCCLAGKVNEPQKNRILEEIEKSKANHFLILFRDSSCQFRALYTLSGETEELSRLAGYGPRTVTPAMVEGIYKYNSDRKRFTQIPAKTMSMSVDAFTIQGHLWQSKKPTTPKKGGGTPK
modifications: Alexa Fluor 647 dye on the SNAP tag

— paper PMC10940162
